# Laboratory results reported in US20110135672A1 (MEDICAL COLLEGE OF GEORGIA RESEARCH INSTITUTE INC GEORGIA, published 2011).
# B1: C-terminal Src kinase (Csk) (enzyme, mouse, UniProt P41241 2-450, looked up)
# chain: SAIQAAWPSGTECIAKYNFHGTAEQDLPFCKGDVLTIVAVTKDPNWYKAKNKVGREGIIPANYVQKREGVKAGTKLSLMPWFHGKITREQAERLLYPPETGLFLVRESTNYPGDYTLCVSCEGKVEHYRIMYHASKLSIDEEVYFENLMQLVEHYTTDADGLCTRLIKPKVMEGTVAAQDEFYRSGWALNMKELKLLQTIGKGEFGDVMLGDYRGNKVAVKCIKNDATAQAFLAEASVMTQLRHSNLVQLLGVIVEEKGGLYIVTEYMAKGSLVDYLRSRGRSVLGGDCLLKFSLDVCEAMEYLEGNNFVHRDLAARNVLVSEDNVAKVSDFGLTKEASSTQDTGKLPVKWTAPEALREKKFSTKSDVWSFGILLWEIYSFGRVPYPRIPLKDVVPRVEKGYKMDAPDGCPPAVYEVMKNCWHLDAATRPTFLQLREQLEHIKTHELHL
# Biological target: T1, ILT4 receptor on dendritic cells of ILT4 transgenic mice (UniProt Q8N423 22-597, limits assumed)
# T1 construct: whole, on cells; also called LILRB2; CD85d
# T1 sequence (Q8N423 22-597 limits assumed): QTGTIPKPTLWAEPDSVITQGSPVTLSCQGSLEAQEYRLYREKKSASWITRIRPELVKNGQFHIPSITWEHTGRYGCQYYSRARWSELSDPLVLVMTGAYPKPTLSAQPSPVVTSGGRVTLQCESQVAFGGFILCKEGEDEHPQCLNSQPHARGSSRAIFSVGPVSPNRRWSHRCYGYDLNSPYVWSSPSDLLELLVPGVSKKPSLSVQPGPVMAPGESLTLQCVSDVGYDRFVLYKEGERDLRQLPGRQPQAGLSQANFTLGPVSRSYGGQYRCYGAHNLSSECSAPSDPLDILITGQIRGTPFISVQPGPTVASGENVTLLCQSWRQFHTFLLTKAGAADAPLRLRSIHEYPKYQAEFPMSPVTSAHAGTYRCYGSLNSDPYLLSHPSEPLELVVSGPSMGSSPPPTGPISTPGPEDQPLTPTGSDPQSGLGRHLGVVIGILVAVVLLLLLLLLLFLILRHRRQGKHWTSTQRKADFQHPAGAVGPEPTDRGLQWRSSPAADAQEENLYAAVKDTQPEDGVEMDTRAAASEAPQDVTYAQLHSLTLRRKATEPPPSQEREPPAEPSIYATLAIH
# Test: immunoprecipitation with anti-ILT4 antibody, immunoblot with anti-Csk antibody
# Protocol: The pellets from 5×10⁶ untreated DCs and DCs treated with HLA-G ligands and LPS were lysed in 1 ml RIPA buffer and precleared several times with Sepharose-coupled protein A (50% wt/vol slurry). Proteins were immunoprecipitated with saturating amounts of anti-ILT4 mAb and protein G Sepharose (Amersham Biosciences). Immunoprecipitation experiments were performed using several ILT4-specific antibodies, including polyclonal anti-ILT4 (C-12), anti-ILT4 (N-14), anti-ILT4 (P-14), anti-ILT (H-300), and anti-ILT4 (42D1) mAb (all from Santa Cruz Biotechnology, Santa Cruz, Calif.). […] The immunoblot was reprobed with anti-SHP-1 and anti-SHP-2 antibodies (both Upstate), and anti-Csk antibody (Santa Cruz Biotechnology). Signals were developed using the enhanced chemoluminescence (ECL) system (Amersham Biosciences). In some cases, densitometric scans of bands were obtained to determine the extent of ILT4-mediated signal inhibition.
binder,measurement,value
B1,binding result,no binding
